From paper PMC9192718
Blank lines part the entries; values can stand above or below the substance they belong to.

Tests used:
[1] = target: Heimdallarchaeota AB125 Vps22 (HeimAB125_14050) (Heimdallarchaeota AB125); assay: cross-linking; Vps22 15 µM in 20 mM HEPES-NaOH pH 7.5, 150 mM NaCl; 16 mM EDC with 16 mM Sulfo-NHS (1 h) or 2 mM BS3 (2 h) on ice; SDS-PAGE
[2] = target: Heimdallarchaeota AB125 Vps22 (HeimAB125_14050) (Heimdallarchaeota AB125); assay: SEC-MALS; Heimdallarchaeotal Vps22 alone, loaded at 2.0 and 0.5 mg/ml; Superdex 200 increase 10/300; 20 mM Tris-HCl pH 8.0, 200 mM NaCl, 0.5 ml/min
[3] = target: Odinarchaeota (Ca. Odinarchaeum yellowstonii LCB_4) Vps23 (TSG101) (Ca. Odinarchaeum yellowstonii LCB_4); assay: SEC-MALS; Odinarchaeota proteins; 100 µl at 2 mg/ml; Superdex 200 10/300 Increase GL; 20 mM Tris pH 8.0, 300 mM NaCl, 0.4 ml/min

stoichiometry N [1]: 2 | stoichiometry N [2]: 2
Substance: Heimdallarchaeota AB125 Vps22 (HeimAB125_14050) (natural protein)

stoichiometry N [3]: 2
Substance: Odinarchaeota (Ca. Odinarchaeum yellowstonii LCB_4) Vps23 (TSG101) (natural protein)

stoichiometry N (Vps28 per Vps23 dimer) [3]: 1
Substance: Odinarchaeota (Ca. Odinarchaeum yellowstonii LCB_4) Vps28 (natural protein)
